The record followed here is patent US20260098075A1.

The target in this assay is human ROR1 (tyrosine-protein kinase transmembrane receptor ROR1) (human), Q01973. Briefly: cell-based or functional assay.
Chain of human ROR1 (tyrosine-protein kinase transmembrane receptor ROR1) (human), Q01973 (Q01973 30-937): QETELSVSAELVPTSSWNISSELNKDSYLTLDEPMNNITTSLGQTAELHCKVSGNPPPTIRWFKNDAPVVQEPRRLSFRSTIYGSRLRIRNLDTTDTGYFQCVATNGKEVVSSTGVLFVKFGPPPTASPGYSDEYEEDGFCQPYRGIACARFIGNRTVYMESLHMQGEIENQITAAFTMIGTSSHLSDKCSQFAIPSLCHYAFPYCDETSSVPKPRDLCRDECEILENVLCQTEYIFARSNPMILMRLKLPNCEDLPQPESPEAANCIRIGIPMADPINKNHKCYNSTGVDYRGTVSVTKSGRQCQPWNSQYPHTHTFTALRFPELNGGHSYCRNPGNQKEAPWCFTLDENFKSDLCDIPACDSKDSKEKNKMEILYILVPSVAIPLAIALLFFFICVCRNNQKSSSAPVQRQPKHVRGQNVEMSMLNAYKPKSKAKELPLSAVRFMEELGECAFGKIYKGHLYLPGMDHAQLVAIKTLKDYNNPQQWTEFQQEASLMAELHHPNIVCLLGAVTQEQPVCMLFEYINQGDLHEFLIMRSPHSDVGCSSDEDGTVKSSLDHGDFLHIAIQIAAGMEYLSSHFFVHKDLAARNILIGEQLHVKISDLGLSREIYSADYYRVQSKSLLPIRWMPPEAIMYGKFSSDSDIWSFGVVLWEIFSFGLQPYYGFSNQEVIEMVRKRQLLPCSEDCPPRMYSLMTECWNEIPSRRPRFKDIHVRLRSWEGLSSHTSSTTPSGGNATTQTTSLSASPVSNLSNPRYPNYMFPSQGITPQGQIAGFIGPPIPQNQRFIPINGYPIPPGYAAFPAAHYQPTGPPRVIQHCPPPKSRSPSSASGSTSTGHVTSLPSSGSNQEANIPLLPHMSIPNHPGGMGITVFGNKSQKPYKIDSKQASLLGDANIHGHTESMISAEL

B1: R12 CAR with Spacer 15 (protein)
chain: QEQLVESGGRLVTPGGSLTLSCKASGFDFSAYYMSWVRQAPGKGLEWIATIYPSSGKTYYATWVNGRFTISSDNAQNTVDLQMNSLTAADRATYFCARDSYADDGALFNIWGPGTLVTISSGGGGSGGGGSGGGGSELVLTQSPSVSAALGSPAKITCTLSSAHKTDTIDWYQQLQGEAPRYLMQVQSDGSYTKRPGVPDRFSGSSSGADRYLIIPSVQADDEADYYCGADYIGGYVFGGGTQLTVTGGGGSGPPKPKDTMFWVLVVVGGVLACYSLLVTVAFIIFWVKRGRKKLLYIFKQPFMRPVQTTQEEDGCSCRFPEEEEGGCELRVKFSRSADAPAYQQGQNQLYNELNLGRREEYDVLDKRRGRDPEMGGKPRRKNPQEGLYNELQKDKMAEAYSEIGMKGERRRGKGHDGLYQGLSTATKDTYDALHMQALPPR
B1 gave an A549 IFNg, donor 2735 of 13800; an A549 IFNg, donor 5018 of 7610; an A549 IL-2, donor 2735 of 8; an A549 IL-2, donor 5018 of 9. The A549 normalized AUC, donor 2735 turned out to be 64; the A549 normalized AUC, donor 5018 came out at 81.2; the H1975 IFNg, donor 2735 stood at 16900; the H1975 IFNg, donor 5018 amounted to 4320. Also, the H1975 IL-2, donor 2735 amounted to 17; the H1975 IL-2, donor 5018 came out at 10; the H1975 normalized AUC, donor 2735 was 63; the H1975 normalized AUC, donor 5018 was determined as 75.

B2: R12 CAR with Spacer 21 (protein)
chain: QEQLVESGGRLVTPGGSLTLSCKASGFDFSAYYMSWVRQAPGKGLEWIATIYPSSGKTYYATWVNGRFTISSDNAQNTVDLQMNSLTAADRATYFCARDSYADDGALFNIWGPGTLVTISSGGGGSGGGGSGGGGSELVLTQSPSVSAALGSPAKITCTLSSAHKTDTIDWYQQLQGEAPRYLMQVQSDGSYTKRPGVPDRFSGSSSGADRYLIIPSVQADDEADYYCGADYIGGYVFGGGTQLTVTGGGGSGVPCPVPPMFWVLVVVGGVLACYSLLVTVAFIIFWVKRGRKKLLYIFKQPFMRPVQTTQEEDGCSCRFPEEEEGGCELRVKFSRSADAPAYQQGQNQLYNELNLGRREEYDVLDKRRGRDPEMGGKPRRKNPQEGLYNELQKDKMAEAYSEIGMKGERRRGKGHDGLYQGLSTATKDTYDALHMQALPPR
In the case of B2, the A549 IFNg, donor 2735 is 14100; the A549 IFNg, donor 5018 came out at 5000; the A549 IL-2, donor 2735 was 7; the A549 IL-2, donor 5018 worked out at 8. The same molecule displayed an A549 normalized AUC, donor 2735 of 66.3; an A549 normalized AUC, donor 5018 of 85; an H1975 IFNg, donor 2735 of 23200; an H1975 IFNg, donor 5018 of 2650. This molecule returned an H1975 IL-2, donor 2735 of 26; an H1975 IL-2, donor 5018 of 7; an H1975 normalized AUC, donor 2735 of 61.5; an H1975 normalized AUC, donor 5018 of 77.4.
